Molecular target: T1, His-vimentin (UniProt P08670 1-466)
T1 construct: vimentin; also called vimentin with His Tag; source: E. coli DH5α, purified by His-beads
Assay: pull-down; GST fusion bound to glutathione-Sepharose beads incubated with purified His-tagged protein at 4 °C; washed 3 times with binding buffer; western blot
Conditions: both partners purified

T1 sequence (P08670 whole entry): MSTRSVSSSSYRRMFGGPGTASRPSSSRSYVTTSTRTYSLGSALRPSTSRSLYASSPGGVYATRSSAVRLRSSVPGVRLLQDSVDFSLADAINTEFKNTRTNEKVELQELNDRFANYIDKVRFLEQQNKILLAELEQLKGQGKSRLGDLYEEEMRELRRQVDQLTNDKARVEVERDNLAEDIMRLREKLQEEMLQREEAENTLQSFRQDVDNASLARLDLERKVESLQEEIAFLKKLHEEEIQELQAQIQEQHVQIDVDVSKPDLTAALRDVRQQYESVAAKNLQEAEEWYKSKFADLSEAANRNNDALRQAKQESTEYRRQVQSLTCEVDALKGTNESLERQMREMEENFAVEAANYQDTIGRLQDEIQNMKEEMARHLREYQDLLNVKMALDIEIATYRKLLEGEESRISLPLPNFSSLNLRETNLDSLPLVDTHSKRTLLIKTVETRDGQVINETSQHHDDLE

B1: GST-LASP1 (natural protein, UniProt Q14847 1-261, looked up)
chain: MNPNCARCGKIVYPTEKVNCLDKFWHKACFHCETCKMTLNMKNYKGYEKKPYCNAHYPKQSFTMVADTPENLRLKQQSELQSQVRYKEEFEKNKGKGFSVVADTPELQRIKKTQDQISNIKYHEEFEKSRMGPSGGEGMEPERRDSQDGSSYRRPLEQQQPHHIPTSAPVYQQPQQQPVAQSYGGYKEPAAPVSIQRSAPGGGGKRYRAVYDYSAADEDEVSFQDGDTIVNVQQIDDGWMYGTVERTGDTGMLPANYVEAI
notes: LIM and SH3 domain protein 1 (LASP1); also called LASP1 with GST Tag
binding result: binds

Source: paper PMC7958410, “Hepatitis B virus X protein promotes vimentin expression via LIM and SH3 domain protein 1 to facilitate epithelial-mesenchymal transition and hepatocarcinogenesis” (Cell Communication and Signaling : CCS, 2021)
